Measurements taken from US20140341917A1 (Merck KGaA, published 2014).

Columns and labels:
human PD-L1 [1] = target: T1, human PD-L1 (human, UniProt Q9NZQ7 19-238, limits assumed); assay: Biacore; relative to A09-188-1
T1 construct: Protein used in the Biacore assays of 3.1

human PD-L1 [2] = target: T1, human PD-L1; assay: Biacore kinetic profile

T1 sequence (Q9NZQ7 19-238 limits assumed): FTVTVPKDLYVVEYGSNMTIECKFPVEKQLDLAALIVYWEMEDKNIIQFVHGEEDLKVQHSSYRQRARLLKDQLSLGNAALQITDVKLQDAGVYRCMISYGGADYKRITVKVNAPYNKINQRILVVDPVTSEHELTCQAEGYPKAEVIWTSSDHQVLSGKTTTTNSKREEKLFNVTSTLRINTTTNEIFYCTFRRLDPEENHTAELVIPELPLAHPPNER

Binder | Relative KD (human PD-L1 [1]) | Kd (human PD-L1 [2]) | t½ (human PD-L1 [2])
A09-202-1 (antibody, human IgG1, lambda, V domains shown, also called VL-A31G) VH: EVQLLESGGGLVQPGGSLRLSCAASGFTFSMYMMMWVRQAPGKGLEWVSSIYPSGGITFYADSVKGRFTISRDNSKNTLYLQMNSLRAEDTAIYYCARIKLGTVTTVDYWGQGTLVTVSS VL: QSALTQPASVSGSPGQSITISCTGTSSDVGGYNYVSWYQQHPGKAPKLMIYDVSNRPSGVSNRFSGSKSGNTASLTISGLQAEDEADYYCSSYTSSSTRVFGTGTKVTVLG | 0.78 | 4.15 nM | 0.313 h
A09-247-2 (antibody, human IgG1, lambda, V domains shown, also called VL-A31G; VH-M31S, M33L, S63T, I93V) VH: EVQLLESGGGLVQPGGSLRLSCAASGFTFSSYLMMWVRQAPGKGLEWVSSIYPSGGITFYADTVKGRFTISRDNSKNTLYLQMNSLRAEDTAVYYCARIKLGTVTTVDYWGQGTLVTVSS VL: QSALTQPASVSGSPGQSITISCTGTSSDVGGYNYVSWYQQHPGKAPKLMIYDVSNRPSGVSNRFSGSKSGNTASLTISGLQAEDEADYYCSSYTSSSTRVFGTGTKVTVLG | 0.16 | 0.76 nM | 0.963 h
A09-216-1 (antibody, human IgG1, lambda, V domains shown, 193V read as I93V; also called VH-M31I, M33L, S63T, 193V) VH: EVQLLESGGGLVQPGGSLRLSCAASGFTFSIYLMMWVRQAPGKGLEWVSSIYPSGGITFYADTVKGRFTISRDNSKNTLYLQMNSLRAEDTAVYYCARIKLGTVTTVDYWGQGTLVTVSS VL: QSALTQPASVSGSPGQSITISCTGTSSDVGAYNYVSWYQQHPGKAPKLMIYDVSNRPSGVSNRFSGSKSGNTASLTISGLQAEDEADYYCSSYTSSSTRVFGTGTKVTVLG | 0.17 | 0.91 nM | 1.3 h
A09-242-2 (antibody, human IgG1, lambda, V domains shown, also called VL-A31G; VH-M33L, M35F, S63T, I93V) VH: EVQLLESGGGLVQPGGSLRLSCAASGFTFSMYLMFWVRQAPGKGLEWVSSIYPSGGITFYADTVKGRFTISRDNSKNTLYLQMNSLRAEDTAVYYCARIKLGTVTTVDYWGQGTLVTVSS VL: QSALTQPASVSGSPGQSITISCTGTSSDVGGYNYVSWYQQHPGKAPKLMIYDVSNRPSGVSNRFSGSKSGNTASLTISGLQAEDEADYYCSSYTSSSTRVFGTGTKVTVLG | 0.16 | 0.76 nM | 0.927 h
A09-243-2 (antibody, human IgG1, lambda, V domains shown, also called VL-A31G; VH-M31I, M33L, S63T, I93V) VH: EVQLLESGGGLVQPGGSLRLSCAASGFTFSIYLMMWVRQAPGKGLEWVSSIYPSGGITFYADTVKGRFTISRDNSKNTLYLQMNSLRAEDTAVYYCARIKLGTVTTVDYWGQGTLVTVSS VL: QSALTQPASVSGSPGQSITISCTGTSSDVGGYNYVSWYQQHPGKAPKLMIYDVSNRPSGVSNRFSGSKSGNTASLTISGLQAEDEADYYCSSYTSSSTRVFGTGTKVTVLG |  |  | 1.42 h
A09-240-2 (antibody, human IgG1, lambda, V domains shown, also called VL-A31G; VH-M33I, M35F, S63T, I93V) VH: EVQLLESGGGLVQPGGSLRLSCAASGFTFSMYIMFWVRQAPGKGLEWVSSIYPSGGITFYADTVKGRFTISRDNSKNTLYLQMNSLRAEDTAVYYCARIKLGTVTTVDYWGQGTLVTVSS VL: QSALTQPASVSGSPGQSITISCTGTSSDVGGYNYVSWYQQHPGKAPKLMIYDVSNRPSGVSNRFSGSKSGNTASLTISGLQAEDEADYYCSSYTSSSTRVFGTGTKVTVLG | 0.03 | 0.16 nM | 4.1 h
A09-215-1 (antibody, human IgG1, lambda, V domains shown, 193V read as I93V; also called VH-M33L, M35F, S63T, 193V) VH: EVQLLESGGGLVQPGGSLRLSCAASGFTFSMYLMFWVRQAPGKGLEWVSSIYPSGGITFYADTVKGRFTISRDNSKNTLYLQMNSLRAEDTAVYYCARIKLGTVTTVDYWGQGTLVTVSS VL: QSALTQPASVSGSPGQSITISCTGTSSDVGAYNYVSWYQQHPGKAPKLMIYDVSNRPSGVSNRFSGSKSGNTASLTISGLQAEDEADYYCSSYTSSSTRVFGTGTKVTVLG | 0.24 | 1.28 nM | 0.843 h
A09-239-2 (antibody, human IgG1, lambda, V domains shown, also called VL-A31G; VH-M31I, M33L, M35F, S63T, I93V) VH: EVQLLESGGGLVQPGGSLRLSCAASGFTFSIYLMFWVRQAPGKGLEWVSSIYPSGGITFYADTVKGRFTISRDNSKNTLYLQMNSLRAEDTAVYYCARIKLGTVTTVDYWGQGTLVTVSS VL: QSALTQPASVSGSPGQSITISCTGTSSDVGGYNYVSWYQQHPGKAPKLMIYDVSNRPSGVSNRFSGSKSGNTASLTISGLQAEDEADYYCSSYTSSSTRVFGTGTKVTVLG |  |  | 2 h
A09-211-1 (antibody, human IgG1, lambda, V domains shown, 193V read as I93V; also called VH-M31I, M33L, M35F, S63T, 193V) VH: EVQLLESGGGLVQPGGSLRLSCAASGFTFSIYLMFWVRQAPGKGLEWVSSIYPSGGITFYADTVKGRFTISRDNSKNTLYLQMNSLRAEDTAVYYCARIKLGTVTTVDYWGQGTLVTVSS VL: QSALTQPASVSGSPGQSITISCTGTSSDVGAYNYVSWYQQHPGKAPKLMIYDVSNRPSGVSNRFSGSKSGNTASLTISGLQAEDEADYYCSSYTSSSTRVFGTGTKVTVLG |  |  | 1.82 h
A09-204-1 (antibody, human IgG1, lambda, V domains shown, positions counted from the N-terminus of the chain; also called VH-M31I, M33I, M35F, S63T, I93V) VH: EVQLLESGGGLVQPGGSLRLSCAASGFTFSIYIMFWVRQAPGKGLEWVSSIYPSGGITFYADTVKGRFTISRDNSKNTLYLQMNSLRAEDTAVYYCARIKLGTVTTVDYWGQGTLVTVSS VL: QSALTQPASVSGSPGQSITISCTGTSSDVGAYNYVSWYQQHPGKAPKLMIYDVSNRPSGVSNRFSGSKSGNTASLTISGLQAEDEADYYCSSYTSSSTRVFGTGTKVTVLG | 0.02 | 0.1 nM | 9.64 h
A09-223-1 (antibody, human IgG1, lambda, V domains shown, also called VH-M31S, M35F, S63T, I93V) VH: EVQLLESGGGLVQPGGSLRLSCAASGFTFSSYMMFWVRQAPGKGLEWVSSIYPSGGITFYADTVKGRFTISRDNSKNTLYLQMNSLRAEDTAVYYCARIKLGTVTTVDYWGQGTLVTVSS VL: QSALTQPASVSGSPGQSITISCTGTSSDVGAYNYVSWYQQHPGKAPKLMIYDVSNRPSGVSNRFSGSKSGNTASLTISGLQAEDEADYYCSSYTSSSTRVFGTGTKVTVLG | 0.68 | 3.62 nM | 0.225 h
A09-244-2 (antibody, human IgG1, lambda, V domains shown, also called VL-A31G; VH-M31S, M33I, M35F, S63T, I93V) VH: EVQLLESGGGLVQPGGSLRLSCAASGFTFSSYIMFWVRQAPGKGLEWVSSIYPSGGITFYADTVKGRFTISRDNSKNTLYLQMNSLRAEDTAVYYCARIKLGTVTTVDYWGQGTLVTVSS VL: QSALTQPASVSGSPGQSITISCTGTSSDVGGYNYVSWYQQHPGKAPKLMIYDVSNRPSGVSNRFSGSKSGNTASLTISGLQAEDEADYYCSSYTSSSTRVFGTGTKVTVLG | 0.03 | 0.12 nM | 4.66 h
A09-241-2 (antibody, human IgG1, lambda, V domains shown, also called VL-A31G; VH-M31I, M33I, S63T, I93V) VH: EVQLLESGGGLVQPGGSLRLSCAASGFTFSIYIMMWVRQAPGKGLEWVSSIYPSGGITFYADTVKGRFTISRDNSKNTLYLQMNSLRAEDTAVYYCARIKLGTVTTVDYWGQGTLVTVSS VL: QSALTQPASVSGSPGQSITISCTGTSSDVGGYNYVSWYQQHPGKAPKLMIYDVSNRPSGVSNRFSGSKSGNTASLTISGLQAEDEADYYCSSYTSSSTRVFGTGTKVTVLG | 0.07 | 0.32 nM | 2.77 h
A09-245-2 (antibody, human IgG1, lambda, V domains shown, also called VL-A31G; VH-M31S, M33L, M35F, S63T, I93V) VH: EVQLLESGGGLVQPGGSLRLSCAASGFTFSSYLMFWVRQAPGKGLEWVSSIYPSGGITFYADTVKGRFTISRDNSKNTLYLQMNSLRAEDTAVYYCARIKLGTVTTVDYWGQGTLVTVSS VL: QSALTQPASVSGSPGQSITISCTGTSSDVGGYNYVSWYQQHPGKAPKLMIYDVSNRPSGVSNRFSGSKSGNTASLTISGLQAEDEADYYCSSYTSSSTRVFGTGTKVTVLG |  |  | 1.29 h
A09-220-1 (antibody, human IgG1, lambda, V domains shown, also called VH-M31S, M33L, M35F, S63T, I93V) VH: EVQLLESGGGLVQPGGSLRLSCAASGFTFSSYLMFWVRQAPGKGLEWVSSIYPSGGITFYADTVKGRFTISRDNSKNTLYLQMNSLRAEDTAVYYCARIKLGTVTTVDYWGQGTLVTVSS VL: QSALTQPASVSGSPGQSITISCTGTSSDVGAYNYVSWYQQHPGKAPKLMIYDVSNRPSGVSNRFSGSKSGNTASLTISGLQAEDEADYYCSSYTSSSTRVFGTGTKVTVLG |  |  | 1.14 h
A09-222-1 (antibody, human IgG1, lambda, V domains shown, also called VH-M31S, M33L, S63T, I93V) VH: EVQLLESGGGLVQPGGSLRLSCAASGFTFSSYLMMWVRQAPGKGLEWVSSIYPSGGITFYADTVKGRFTISRDNSKNTLYLQMNSLRAEDTAVYYCARIKLGTVTTVDYWGQGTLVTVSS VL: QSALTQPASVSGSPGQSITISCTGTSSDVGAYNYVSWYQQHPGKAPKLMIYDVSNRPSGVSNRFSGSKSGNTASLTISGLQAEDEADYYCSSYTSSSTRVFGTGTKVTVLG | 0.23 | 1.24 nM | 0.785 h
A09-213-1 (antibody, human IgG1, lambda, V domains shown, 193V read as I93V; also called VH-M31I, M35F, S63T, 193V) VH: EVQLLESGGGLVQPGGSLRLSCAASGFTFSIYMMFWVRQAPGKGLEWVSSIYPSGGITFYADTVKGRFTISRDNSKNTLYLQMNSLRAEDTAVYYCARIKLGTVTTVDYWGQGTLVTVSS VL: QSALTQPASVSGSPGQSITISCTGTSSDVGAYNYVSWYQQHPGKAPKLMIYDVSNRPSGVSNRFSGSKSGNTASLTISGLQAEDEADYYCSSYTSSSTRVFGTGTKVTVLG | 0.47 | 2.51 nM | 0.462 h
A09-219-1 (antibody, human IgG1, lambda, V domains shown, also called VH-M31S, M33I, M35F, S63T, I93V) VH: EVQLLESGGGLVQPGGSLRLSCAASGFTFSSYIMFWVRQAPGKGLEWVSSIYPSGGITFYADTVKGRFTISRDNSKNTLYLQMNSLRAEDTAVYYCARIKLGTVTTVDYWGQGTLVTVSS VL: QSALTQPASVSGSPGQSITISCTGTSSDVGAYNYVSWYQQHPGKAPKLMIYDVSNRPSGVSNRFSGSKSGNTASLTISGLQAEDEADYYCSSYTSSSTRVFGTGTKVTVLG | 0.03 | 0.18 nM | 4.64 h
A09-212-1 (antibody, human IgG1, lambda, V domains shown, 193V read as I93V; also called VH-M33I, M35F, S63T, 193V) VH: EVQLLESGGGLVQPGGSLRLSCAASGFTFSMYIMFWVRQAPGKGLEWVSSIYPSGGITFYADTVKGRFTISRDNSKNTLYLQMNSLRAEDTAVYYCARIKLGTVTTVDYWGQGTLVTVSS VL: QSALTQPASVSGSPGQSITISCTGTSSDVGAYNYVSWYQQHPGKAPKLMIYDVSNRPSGVSNRFSGSKSGNTASLTISGLQAEDEADYYCSSYTSSSTRVFGTGTKVTVLG |  |  | 4.24 h
A09-214-1 (antibody, human IgG1, lambda, V domains shown, 193V read as I93V; also called VH-M31I, M33I, S63T, 193V) VH: EVQLLESGGGLVQPGGSLRLSCAASGFTFSIYIMMWVRQAPGKGLEWVSSIYPSGGITFYADTVKGRFTISRDNSKNTLYLQMNSLRAEDTAVYYCARIKLGTVTTVDYWGQGTLVTVSS VL: QSALTQPASVSGSPGQSITISCTGTSSDVGAYNYVSWYQQHPGKAPKLMIYDVSNRPSGVSNRFSGSKSGNTASLTISGLQAEDEADYYCSSYTSSSTRVFGTGTKVTVLG | 0.08 | 0.4 nM | 2.98 h
